Source: patent US12099068B2, “Biomarkers for graft-versus-host disease” (Incyte Corporation, priority 2018, dated 2024)

B1: ICAM3 (protein, UniProt P32942 30-547, looked up)
Intercellular adhesion …: QEFLLRVEPQNPVLSAGGSLFVNCSTDCPSSEKIALETSLSKELVASGMGWAAFNLSNVTGNSRILCSVYCNGSQITGSSNITVYRLPERVELAPLPPWQPVGQNFTLRCQVEDGSPRTSLTVVLLRWEEELSRQPAVEEPAEVTATVLASRDDHGAPFSCRTELDMQPQGLGLFVNTSAPRQLRTFVLPVTPPRLVAPRFLEVETSWPVDCTLDGLFPASEAQVYLALGDQMLNATVMNHGDTLTATATATARADQEGAREIVCNVTLGGERREARENLTVFSFLGPIVNLSEPTAHEGSTVTVSCMAGARVQVTLDGVPAAAPGQPAQLQLNATESDDGRSFFCSATLEVDGEFLHRNSSVQLRVLYGPKIDRATCPQHLKWKDKTRHVLQCQARGNPYPELRCLKEGSSREVPVGIPFFVNVTHNGTYQCQASSSRGKYTLVVVMDIEAGSSHFVPVFVAVLLTLGVVTIVLALMYVFREHQRSGSYHVREESTYLPLTSMQPTEAMGEEPSRAE
B2: ROBO2 (protein, UniProt Q9HCK4 22-1378, looked up)
Roundabout homolog 2: SRLRQEDFPPRIVEHPSDVIVSKGEPTTLNCKAEGRPTPTIEWYKDGERVETDKDDPRSHRMLLPSGSLFFLRIVHGRRSKPDEGSYVCVARNYLGEAVSRNASLEVALLRDDFRQNPTDVVVAAGEPAILECQPPRGHPEPTIYWKKDKVRIDDKEERISIRGGKLMISNTRKSDAGMYTCVGTNMVGERDSDPAELTVFERPTFLRRPINQVVLEEEAVEFRCQVQGDPQPTVRWKKDDADLPRGRYDIKDDYTLRIKKTMSTDEGTYMCIAENRVGKMEASATLTVRAPPQFVVRPRDQIVAQGRTVTFPCETKGNPQPAVFWQKEGSQNLLFPNQPQQPNSRCSVSPTGDLTITNIQRSDAGYYICQALTVAGSILAKAQLEVTDVLTDRPPPIILQGPANQTLAVDGTALLKCKATGDPLPVISWLKEGFTFPGRDPRATIQEQGTLQIKNLRISDTGTYTCVATSSSGETSWSAVLDVTESGATISKNYDLSDLPGPPSKPQVTDVTKNSVTLSWQPGTPGTLPASAYIIEAFSQSVSNSWQTVANHVKTTLYTVRGLRPNTIYLFMVRAINPQGLSDPSPMSDPVRTQDISPPAQGVDHRQVQKELGDVLVRLHNPVVLTPTTVQVTWTVDRQPQFIQGYRVMYRQTSGLQATSSWQNLDAKVPTERSAVLVNLKKGVTYEIKVRPYFNEFQGMDSESKTVRTTEEAPSAPPQSVTVLTVGSYNSTSISVSWDPPPPDHQNGIIQEYKIWCLGNETRFHINKTVDAAIRSVIIGGLFPGIQYRVEVAASTSAGVGVKSEPQPIIIGRRNEVVITENNNSITEQITDVVKQPAFIAGIGGACWVILMGFSIWLYWRRKKRKGLSNYAVTFQRGDGGLMSNGSRPGLLNAGDPSYPWLADSWPATSLPVNNSNSGPNEIGNFGRGDVLPPVPGQGDKTATMLSDGAIYSSIDFTTKTSYNSSSQITQATPYATTQILHSNSIHELAVDLPDPQWKSSIQQKTDLMGFGYSLPDQNKGNNGGKGGKKKKNKNSSKPQKNNGSTWANVPLPPPPVQPLPGTELEHYAVEQQENGYDSDSWCPPLPVQTYLHQGLEDELEEDDDRVPTPPVRGVASSPAISFGQQSTATLTPSPREEMQPMLQAHLDELTRAYQFDIAKQTWHIQSNNQPPQPPVPPLGYVSGALISDLETDVADDDADDEEEALEIPRPLRALDQTPGSSMDNLDSSVTGKAFTSSQRPRPTSPFSTDSNTSAALSQSQRPRPTKKHKGGRMDQQPALPHRREGMTDEEALVPYSKPSFPSPGGHSSSGTASSKGSTGPRKTEVLRAGHQRNASDLLDIGYMGSNSQGQFTGEL
B3: SOST (protein, UniProt Q9BQB4 24-213, looked up)
Sclerostin: QGWQAFKNDATEIIPELGEYPEPPPELENNKTMNRAENGGRPPHHPFETKDVSEYSCRELHFTRYVTDGPCRSAKPVTELVCSGQCGPARLLPNAIGRGKWWRPSGPDFRCIPDRYRAQRVQLLCPGGEAPRARKVRLVASCKCKRLTRFHNQSELKDFGTEAARPQKGRKPRPRARSAKANQAELENAY
B4: ANGPTL3 (protein, UniProt Q9Y5C1 17-460, looked up)
Angiopoietin-related protein 3: SRIDQDNSSFDSLSPEPKSRFAMLDDVKILANGLLQLGHGLKDFVHKTKGQINDIFQKLNIFDQSFYDLSLQTSEIKEEEKELRRTTYKLQVKNEEVKNMSLELNSKLESLLEEKILLQQKVKYLEEQLTNLIQNQPETPEHPEVTSLKTFVEKQDNSIKDLLQTVEDQYKQLNQQHSQIKEIENQLRRTSIQEPTEISLSSKPRAPRTTPFLQLNEIRNVKHDGIPAECTTIYNRGEHTSGMYAIRPSNSQVFHVYCDVISGSPWTLIQHRIDGSQNFNETWENYKYGFGRLDGEFWLGLEKIYSIVKQSNYVLRIELEDWKDNKHYIEYSFYLGNHETNYTLHLVAITGNVPNAIPENKDLVFSTWDHKAKGHFNCPEGYSGGWWWHDECGENNLNGKYNKPRAKSKPERRRGLSWKSQNGRLYSIKSTKMLIHPTDSESFE
B5: MPO (protein, UniProt P05164 165-745, looked up)
Myeloperoxidase: VTCPEQDKYRTITGMCNNRRSPTLGASNRAFVRWLPAEYEDGFSLPYGWTPGVKRNGFPVALARAVSNEIVRFPTDQLTPDQERSLMFMQWGQLLDHDLDFTPEPAARASFVTGVNCETSCVQQPPCFPLKIPPNDPRIKNQADCIPFFRSCPACPGSNITIRNQINALTSFVDASMVYGSEEPLARNLRNMSNQLGLLAVNQRFQDNGRALLPFDNLHDDPCLLTNRSARIPCFLAGDTRSSEMPELTSMHTLLLREHNRLATELKSLNPRWDGERLYQEARKIVGAMVQIITYRDYLPLVLGPTAMRKYLPTYRSYNDSVDPRIANVFTNAFRYGHTLIQPFMFRLDNRYQPMEPNPRVPLSRVFFASWRVVLEGGIDPILRGLMATPAKLNRQNQIAVDEIRERLFEQVMRIGLDLPALNMQRSRDHGLPGYNAWRRFCGLPQPETVGQLGTVLRNLKLARKLMEQYGTPNNIDIWMGGVSEPLKRKGRVGPLLACIIGTQFRKLRDGDRFWWENEGVFSMQQRQALAQISLPRIICDNTGITTVSKNNIFMSNSYPRDFVNCSTLPALNLASWREAS
B6: B4GAT1 (protein, UniProt O43505 1-415, looked up)
Beta-1,4-glucuronyltransferase …: MQMSYAIRCAFYQLLLAALMLVAMLQLLYLSLLSGLHGQEEQDQYFEFFPPSPRSVDQVKAQLRTALASGGVLDASGDYRVYRGLLKTTMDPNDVILATHASVDNLLHLSGLLERWEGPLSVSVFAATKEEAQLATVLAYALSSHCPDMRARVAMHLVCPSRYEAAVPDPREPGEFALLRSCQEVFDKLARVAQPGINYALGTNVSYPNNLLRNLAREGANYALVIDVDMVPSEGLWRGLREMLDQSNQWGGTALVVPAFEIRRARRMPMNKNELVQLYQVGEVRPFYYGLCTPCQAPTNYSRWVNLPEESLLRPAYVVPWQDPWEPFYVAGGKVPTFDERFRQYGFNRISQACELHVAGFDFEVLNEGFLVHKGFKEALKFHPQKEAENQHNKILYRQFKQELKAKYPNSPRRC
B7: SIT1 (protein, UniProt Q9Y3P8 25-196, looked up)
Signaling …: DNCTDLLALGIPSITQAWGLWVLLGAVTLLFLISLAAHLSQWTRGRSRSHPGQGRSGESVEEVPLYGNLHYLQTGRLSQDPEPDQQDPTLGGPARAAEEVMCYTSLQLRPPQGRIPGPGTPVKYSEVVLDSEPKSQASGPEPELYASVCAQTRRARASFPDQAYANSQPAAS

System: plasma proteins
Assay: Plasma proteins modulated between baseline and day 28 in responders (CR, VGPR, PR; n = 19), Example 6 (Table 13)
Format: in vivo, human
Settings: plasma protein (OLINK NPX); responders (CR, VGPR, PR; n = 19); itacitinib 200 mg or 300 mg QD with corticosteroids; day 28 vs baseline
Outline: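 Longitudinal comparison, day 28 versus baseline, with steroid-naive (N=10) and steroid-refractory (N=18) patients combined. Proteins measured by OLINK proximity extension, log2 normalized protein expression. Differences tested by t tests, ANOVA, Pearson correlation, P<0.05 significant.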

| Molecule | Fold Change, Decreased Expression from Baseline to Day 28 | Fold Change, Increased Expression from Baseline to Day 28 |
| --- | --- | --- |
| B1 | −1.464 | – |
| B2 | – | 1.249 |
| B3 | −1.3214 | – |
| B4 | – | 1.2673 |
| B5 | −1.8431 | – |
| B6 | – | 1.2795 |
| B7 | −1.5501 | – |
